Target: T1, Fms-related tyrosine kinase 3 (FLT3) on FLT3-expressing target cells (human, UniProt P36888 27-993)
T1 sequence (looked up): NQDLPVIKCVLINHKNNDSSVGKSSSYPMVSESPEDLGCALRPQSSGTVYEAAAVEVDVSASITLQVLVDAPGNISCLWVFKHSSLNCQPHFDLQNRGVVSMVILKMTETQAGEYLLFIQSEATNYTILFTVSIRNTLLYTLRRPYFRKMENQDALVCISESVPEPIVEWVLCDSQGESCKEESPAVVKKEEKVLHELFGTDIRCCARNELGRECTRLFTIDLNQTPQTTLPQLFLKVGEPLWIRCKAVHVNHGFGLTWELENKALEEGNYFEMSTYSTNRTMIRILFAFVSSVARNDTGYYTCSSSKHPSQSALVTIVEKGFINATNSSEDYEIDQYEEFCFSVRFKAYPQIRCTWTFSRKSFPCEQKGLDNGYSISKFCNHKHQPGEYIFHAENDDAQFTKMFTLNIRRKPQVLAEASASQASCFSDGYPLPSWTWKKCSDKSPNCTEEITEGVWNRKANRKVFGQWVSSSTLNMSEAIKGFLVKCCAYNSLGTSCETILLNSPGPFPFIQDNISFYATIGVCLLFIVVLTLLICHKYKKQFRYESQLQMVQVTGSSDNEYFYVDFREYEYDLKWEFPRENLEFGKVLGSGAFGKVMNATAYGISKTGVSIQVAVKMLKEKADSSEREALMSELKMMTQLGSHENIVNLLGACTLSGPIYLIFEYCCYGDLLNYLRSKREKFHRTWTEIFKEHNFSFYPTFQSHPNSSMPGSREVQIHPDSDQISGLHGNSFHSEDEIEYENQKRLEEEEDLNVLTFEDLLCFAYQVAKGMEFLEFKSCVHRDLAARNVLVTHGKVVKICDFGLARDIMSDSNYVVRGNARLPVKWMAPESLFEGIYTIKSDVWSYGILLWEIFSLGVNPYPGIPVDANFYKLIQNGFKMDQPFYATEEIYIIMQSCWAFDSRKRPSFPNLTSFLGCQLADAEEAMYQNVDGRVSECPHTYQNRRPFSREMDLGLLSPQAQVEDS
Assay: cell-based or functional assay

- IL-2 expression (quantitative RT-PCR): > 5 fold
B1: FLCAR (chimeric antigen receptor with an FLT3-binding extracellular portion of human FLT3 ligand, CD28 transmembrane and costimulatory regions and a CD3-zeta … (other)
chain: TQDCSFQHSPISSDFAVKIRELSDYLLQDYPVTVASNLQDEELCGGLWRLVLAQRWMERLKTVAGSKMQGLLERVNTEIHFVTKCAFQPPPSCLRFVQTNISRLLQETSEQLVALKPWITRQNFSRCLELQCQGKHLCPSPLFPGPSKPFWVLVVVGGVLACYSLLVTVAFIIFWVRSKRSRLLHSDYMNMTPRRPGPTRKHYQPYAPPRDFAAYRSGSRSADAPAYQQGQNQLYNELNLGRREEYDVLDKRRGRDPEMGGKPRRKNPQEGLYNELQKDKMAEAYSEIGMKGERRRGKGHDGLYQGLSTATKDTYDALHMQALPPR
modifications: partially phosphorylated on tyrosine

From patent publication US20240317894A1 (BOARD OF REGENTS OF THE UNIVERSITY OF OKLAHOMA, published 2024)
